Test results published in publication doi:10.1101/505453.

Molecular target: Oryza sativa hyperosmolality-gated protein OsOSCA1.2 (Oryza sativa (rice))
Assay: SEC-MALS

stoichiometry N: 2
Substance: Oryza sativa hyperosmolality-gated protein OsOSCA1.2 (natural protein)
